The record followed here is publication PMC10849636 (bioRxiv, 2024).

This series deals with the molecule itself. Put plainly: SEC. On the technique in general: SEC sorts molecules by how far they enter the pores of the column.

B1: full-length WT HIV-1 integrase (IN) (enzyme)
chain: FLDGIDKAQEEHEKYHSNWRAMASDFNLPPVVAKEIVASCDKCQLKGEAMHGQVDCSPGIWQLDCTHLEGKVILVAVHVASGYIEAEVIPAETGQETAYFLLKLAGRWPVKTVHTDNGSNFTSTTVKAACWWAGIKQEFGIPYNPQSQGVIESMNKELKKIIGQVRDQAEHLKTAVQMAVFIHNFKRKGGIGGYSAGERIVDIIATDIQTKELQKQITKIQNFRVYYRDSRDPVWKGPAKLLWKGEGAVVIQDNSDIKVVPRRKAKIIRDYGKQMAGDDCVASRQDED
For B1, the binding result was “binds”.
